Results: patent publication US20170275375A1 (published 2017)

What was measured:
[1] = biological target: T1, human PD1 expressed on cells (activated Jurkat T cells; SpESFX-2D1 transfectants) (human, UniProt Q15116 25-288); test: binding to 2D1 cells transfected with human PD1
T1 construct: whole, on cells; Endogenous on stimulated Jurkat cells; transfected human PD1 on SpESFX-2D1; also called CD279; 2D1 cells

[2] = biological target: T2, recombinant human PD1-His (human, UniProt Q15116 25-167, limits assumed); test: in vitro binding to recombinant human PD1-His (FIG. 32)
T2 construct: also called recombinant PD1-His; not shown: His tag
T2 sequence (Q15116 25-167 limits assumed): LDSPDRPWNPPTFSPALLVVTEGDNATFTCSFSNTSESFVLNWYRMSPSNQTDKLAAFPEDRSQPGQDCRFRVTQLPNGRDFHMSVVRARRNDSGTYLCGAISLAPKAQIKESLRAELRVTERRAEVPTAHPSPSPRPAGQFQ

T1 sequence (Q15116 25-288): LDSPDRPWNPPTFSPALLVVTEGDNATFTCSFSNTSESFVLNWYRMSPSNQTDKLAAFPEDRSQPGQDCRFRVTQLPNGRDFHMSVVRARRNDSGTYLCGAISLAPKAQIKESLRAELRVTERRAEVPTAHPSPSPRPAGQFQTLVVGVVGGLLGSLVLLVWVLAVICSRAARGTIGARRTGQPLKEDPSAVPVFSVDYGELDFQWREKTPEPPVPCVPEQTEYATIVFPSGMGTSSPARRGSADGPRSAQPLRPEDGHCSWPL

Row | EC50 [1] [µg/mL] | EC50 [2] [nM] | Binder
1 | 0.168 | 0.072 | 2G9 (IMMU-cPD1) (antibody, V domains shown, also called chimeric anti-PD1; chimeric version of 5G9) VH: VKLQESGGGLVKPGGSLKLSCAASGFAFSSNDMSWVRQTPEKRLEWVATISGGGINTYYPDSVKGRFTISRDNARNTLDLQMSSLRSEDTALYYCARRSNYAWFAYWGQGTPVTVSA VL: not shown
2 | 0.568 | – | humanized anti-PD1 antibody version 5 (V5) (antibody, V domains shown, V5 is V4 with a putative light-chain N-glycosylation site removed; also called hPD1 v5; hPD1 (v5)) VH: QVQLVESGGGLVKPGGSLRLSCAASGFAFSSNDMSWVRQAPGKGLEWVATISGGGINTYYPDSVKGRFTISRDNAKNTLYLQMNSLRAEDTAVYYCARRSNYAWFAYWGQGTPVTVSA VL: DIQLTQSPASLAVSLGQRATISCRASESVDTYGISFMNWFQQKPGQPPKLLISPNQGSGVPARFSGSGSGTDFTLTINSLEAEDTAVYFCQQSKEVPWTFGGGTKLEIK
